The target of test [1] is Mad1 CTD, 597-718 (UniProt Q9Y6D9). Put plainly: 1H,15N HSQC titration of 15N-Mad1CTD. Conditions: reference: non-phosphorylated peptide; sites S459,T461.
For test [2], the target named is Mad1 C-terminal domain (Mad1^CTD) homodimer, residues 597-718 (human) (UniProt Q9Y6D9). Put plainly: ITC; Bub1^CD1 peptide (0.3-1.5 mM) titrated into Mad1 (30-100 µM) in the cell; 20°C; 20 mM HEPES pH 7.5, 100 mM NaCl, 1 mM TCEP; single-site model; stoichiometry counted on dimeric Mad1^CTD. A general note: In ITC the heat of successive injections is recorded.
For test [3] the target is unchanged. As to the kind of experiment: NMR titration; 1H,15N 2D HSQC of 15N-labelled Mad1^CTD with unlabelled peptide added (dimer to peptide 1:0.5 to 1:4); 50 mM HEPES pH 7.0, 100 mM NaCl, 2 mM TCEP, 0.02% NaN3, 298 K.
The target is the same in test [4]. As to the kind of experiment: crystal structure; co-crystallisation of Mad1^CTD (0.35 mM) with Bub1^CD1 peptide at 2.5 mM in 5% DMSO (or 5 mM in 10% DMSO); 10% isopropanol, 0.1 M Na HEPES pH 7.5, 20% PEG 4000; 21°C.
The target is the same in test [5]. Put plainly: NMR titration; 31P 1D spectra of phosphorylated Bub1^CD1 peptide with Mad1^CTD dimer at 1:1 and 1:2 dimer to peptide, around 0.25 to 0.5 mM of each; 50 mM HEPES pH 7.0, 100 mM NaCl, 2 mM TCEP, 0.02% NaN3, 298 K.

The values that follow come from PMC8391104, “Molecular mechanism of Mad1 kinetochore targeting by phosphorylated Bub1” (EMBO Reports, 2021).

Chain of Mad1 C-terminal domain (Mad1^CTD) homodimer, residues 597-718 (human) (Q9Y6D9 597-718): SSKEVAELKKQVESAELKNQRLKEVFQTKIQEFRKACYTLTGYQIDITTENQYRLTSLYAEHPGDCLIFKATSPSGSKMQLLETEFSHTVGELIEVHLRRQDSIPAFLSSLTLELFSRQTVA

For “Bub1 CD1, 455-479 (from UniProt O43683) phosphorylated peptide”, the “binding against the reference” value in test [1] is “gained”.

For orientation: Kd means the constant that tells how readily two partners part at equilibrium. Higher therefore signals a looser complex. Regarding “singly phosphorylated Bub1^CD1 peptide (pThr461)”, in test [2], the Kd was 3.3 µM.

In test [3], “doubly phosphorylated Bub1^CD1 peptide (pSer459-pThr461)” returned a stoichiometry N (peptide per Mad1^CTD dimer) of 1. For the same substance, the stoichiometry N (peptides per Mad1^CTD homodimer) in test [4] came to 2. In test [2], this substance showed a Kd of 2.7 µM and a stoichiometry N (peptide per Mad1 dimer) of 1. The stoichiometry N (peptide per Mad1^CTD dimer) in test [5] was 1.
